{"source": "paper doi:10.1101/2021.01.28.428652", "key": {"[1]": {"target": "MIK2^ECD-6xHIS, extracellular leucine-rich repeat domain of MALE DISCOVERER 1-… RECEPTOR-LIKE KINASE 2 (Arabidopsis thaliana) (UniProt Q8VZG8)", "sequence (Q8VZG8 44-707)": "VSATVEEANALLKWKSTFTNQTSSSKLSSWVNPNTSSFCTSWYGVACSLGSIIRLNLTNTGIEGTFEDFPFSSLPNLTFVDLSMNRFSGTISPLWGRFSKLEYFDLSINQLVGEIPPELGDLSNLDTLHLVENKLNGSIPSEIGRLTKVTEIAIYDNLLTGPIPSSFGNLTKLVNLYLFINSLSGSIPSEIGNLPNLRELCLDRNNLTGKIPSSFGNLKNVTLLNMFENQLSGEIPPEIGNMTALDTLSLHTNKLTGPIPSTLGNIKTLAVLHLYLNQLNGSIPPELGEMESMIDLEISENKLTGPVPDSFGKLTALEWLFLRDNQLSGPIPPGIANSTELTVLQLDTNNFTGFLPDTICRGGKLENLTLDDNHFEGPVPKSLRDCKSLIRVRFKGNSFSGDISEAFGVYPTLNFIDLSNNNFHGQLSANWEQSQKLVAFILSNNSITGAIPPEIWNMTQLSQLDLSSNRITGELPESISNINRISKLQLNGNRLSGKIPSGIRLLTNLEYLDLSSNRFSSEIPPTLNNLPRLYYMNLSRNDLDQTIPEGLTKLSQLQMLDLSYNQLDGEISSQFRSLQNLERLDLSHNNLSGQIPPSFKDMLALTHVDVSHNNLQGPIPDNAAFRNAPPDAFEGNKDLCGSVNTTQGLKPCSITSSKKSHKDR", "experiment": "ITC"}, "[2]": {"target": "MIK2^ECD-6xHIS, extracellular leucine-rich repeat domain of MALE DISCOVERER 1-… RECEPTOR-LIKE KINASE 2 (Arabidopsis thaliana) (UniProt Q8VZG8)", "experiment": "SPR"}}, "note": "pKd: −log10 of the molar value.", "data": [{"substance": "SCOOP12 peptide (SERINE-RICH ENDOGENOUS PEPTIDE 12)", "values": [{"measurement": "pKd", "setting": "[1]", "result": 5.50}, {"measurement": "stoichiometry N (ligand molecule per receptor molecule)", "setting": "[1]", "result": 1}, {"measurement": "pKd", "setting": "[2]", "result": 5.75}]}, {"substance": "SCOOP12^SS/AA peptide", "values": [{"measurement": "pKd", "setting": "[2]", "result": 2.46}]}]}
